Source: the RNAGym collection of RNA variant scans (doi:10.7554/elife.80360)

B1: HDV Ribozyme (parent)
chain: GGCCGGCAUGGUCCCAGCCUCCUCGCUGGCGCCGGCUGGGCAACAUUCCGAGGGGACCGUCCCCUCGGUAAUGGCGAAUGGGACCCA

Variants of: B1
Assay: self-cleavage, relative activity (ratio to wild type); higher = more cleavage; co-transcriptional

Variant | self-cleavage
G11U C26A | 0.689
U12C C18G | 0
G11C U60G | 0.256
G11C U60C | 0.511
G11C U60A | 0.0831
U12A G54A | 0.306
U12C A87G | 0.369
U12C A87C | 0.479
U12A G50C | 0.332
U12A G34U | 0.142
G11U A45G | 0.587
G11U A45C | 0.0841
G11U U20C | 0.0248
U12A A70G | 0.277
U12A A70U | 0.332
G11U C33G | 0.0594
G11U C33U | 0.0997
G11U C64U | 0.519
G11U C58A | 0.326
G11U G81A | 0.0623
G11U U72G | 0.145
G11U U72A | 0.287
U12A G59U | 0.214
G11C G73C | 0.0346

Variant | self-cleavage
G11U C75G | 0.0264
G11U C75A | 0.0231
G11C C62A | 0.475
G11C U12C | 0.145
G11C U12G | 0.123
G11C U12A | 0
U12C A83U | 0.128
G11U A77G | 0.283
U12A U46G | 0.104
U12A U47C | 0.332
U12A U47G | 0.262
G11U C13G | 0.0831
G11U C13A | 0.197
U12A G82C | 0.302
U12A G82U | 0.161
G11U A51G | 0.415
G11C U72A | 0.0875
U12A G25U | 0.133
U12A G25C | 0.17
U12A U37A | 0
G11C C48G | 0.399
G11C C48U | 0.119
U12A C84G | 0.554
U12A C84U | 0.519

Variant | self-cleavage
G11U G82A | 0.0678
G11U G82C | 0.117
G11C G55U | 0.305
G11C G55C | 0.228
G11U G28C | 0.0992
U12A C41A | 0.437
U12A C61U | 0.469
U12A C61G | 0.158
U12A G28U | 0.181
U12A G28A | 0.0314
G11U C41G | 0.204
U12A G35C | 0.142
U12A G35A | 0.0875
U12A G35U | 0.0225
G11C G34U | 0.0302
G11C C36A | 0.0536
U12A C66U | 0.317
G11U C15G | 0.166
G11C G52A | 0.232
G11C G52U | 0.228
G11C G39A | 0.264
G11C G39C | 0.0489
U12C A16G | 0
U12C A70C | 0

Variant | self-cleavage
G11U A78G | 0.106
G11U A78C | 0.02
U12A A87U | 0.262
U12A A87G | 0.115
U12A A87C | 0.251
U12A C44G | 0.166
U12A C63G | 0.293
U12A A77G | 0.151
U12A A77U | 0
U12A A77C | 0.0755
G11U G17A | 0.45
G11U G17C | 0.203
G11U G17U | 0.308
U12C A51U | 0.359
G11U C18G | 0.158
G11U C63U | 0.364
G11U C63A | 0.228
G11U U46G | 0.285
G11U U46A | 0.18
U12A C19G | 0
G11C C84A | 0.458
G11U C57U | 0.282
G11C G35C | 0.151
G11U G76A | 0.292

Variant | self-cleavage
U12A U69A | 0.346
G11C U27C | 0.196
G11C U27A | 0.646
U12A U27G | 0.237
U12A U27C | 0.35
G11U G39A | 0.128
G11C G25U | 0
G11C G25C | 0.0475
G11C G25A | 0.0449
G11C U79G | 0.0875
G11C U79A | 0.0723
U12A C49G | 0.115
G11C C44G | 0
G11C C44A | 0.0923
G11C C44U | 0.0437
G11U C62G | 0.151
G11U C62A | 0.487
U12A G81C | 0.0723
U12A G81U | 0.122
G11C C41G | 0.712
G11C C41U | 0.0831
G11U G35A | 0.241
G11U G35C | 0.0449
U12A A56U | 0.403

Variant | self-cleavage
U12A A56C | 0.262
U12A A56G | 0.196
G11U | 0.366
G11U U65C | 0.19
G11U U65G | 0.542
G11U C36G | 0.0615
G11U C36U | 0.138
G11C G17C | 0.0536
G11C G17A | 0.231
G11U G67C | 0.262
U12C A45U | 0.196
U12C A45G | 0.277
G11U G29A | 0.158
G11U G29U | 0.0536
G11U G29C | 0.0231
G11C G68U | 0.291
G11C G68C | 0.0831
G11C C63A | 0.314
G11C C63G | 0.434
U12A A43C | 0.161
U12A A43G | 0.0831
U12A C33A | 0.0604
U12A C33U | 0.44
G11U U47C | 0.156

Variant | self-cleavage
U12A G73C | 0.314
U12A G73A | 0.123
U12A C64G | 0.437
U12A G17U | 0.108
G11C C64A | 0.629
G11C C64U | 0.269
U12C A43G | 0.0437
G11U C48G | 0.212
G11C G50C | 0.365
U12A G55C | 0.201
G11C U47C | 0.453
G11C U47G | 0.383
U12A G39C | 0.0594
U12A G39U | 0.0489
G11U G59A | 0.499
G11U G59C | 0.297
G11U G59U | 0.41
G11C C86G | 0.312
G11C C57A | 0.453
G11C C57G | 0.249
G11C C57U | 0.388
G11C G29A | 0
G11U C66A | 0.31
